This passage reports protein stability index results from the supplement of paper PMC10567573.

First the molecules themselves.
B1: WDR41 (parent)
chain: WTMQAYERNFWDPSPQLDTQQEIK
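Further: lentivirally expressed fusions sorted by FACS into six bins by GFP to DsRed ratio, PSI derived from sequencing read proportions per bin multiplied by bin number.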

The data set covers variants of B1. As to the kind of experiment: protein stability index of a GFP-peptide fusion (GPS, HEK-293T) (PSI 1-6); higher = more stable. As to conditions: c terminus: a fixed tail appended.
In the case of WTMQAYSRNFWDPSPQLDTQQEIK [E7S], the protein stability index is 2.45.
With WTMQAYKRNFWDPSPQLDTQQEIK [E7K], the protein stability index came to 2.94.
As for WTMQAYMRNFWDPSPQLDTQQEIK [E7M], the figure is 1.93; as for WTMQAYARNFWDPSPQLDTQQEIK [E7A], 2.02.
To WTMQAYTRNFWDPSPQLDTQQEIK [E7T] belongs 2.72; to WTMQAYNRNFWDPSPQLDTQQEIK [E7N], 3.04; to WTMQAYWRNFWDPSPQLDTQQEIK [E7W], 2.39.
As for WTMQAYDRNFWDPSPQLDTQQEIK [E7D], the figure is 3.25.
In the case of WTMQAYFRNFWDPSPQLDTQQEIK [E7F], the protein stability index worked out at 2.88.
Take WTMQAYERNFWDHSPQLDTQQEIK [P13H]: the protein stability index worked out at 2.33.
To WTMQAYERNFWDTSPQLDTQQEIK [P13T] belongs 1.56.
For the variant WTMQAYERNFWDQSPQLDTQQEIK [P13Q], the protein stability index was determined as 2.65.
As for WTMQAYERNFWDWSPQLDTQQEIK [P13W], the figure is 1.76; as for WTMQAYERNFWDASPQLDTQQEIK [P13A], 2.11.
As to WTMQAYERNFWDDSPQLDTQQEIK [P13D], the protein stability index was determined as 3.07.
On to WTMQAYERNFWDNSPQLDTQQEIK [P13N], for which the protein stability index was determined as 2.29.
To WTMQAYERNFWDRSPQLDTQQEIK [P13R] belongs 3.01.
As for WTMQAYERNFWDSSPQLDTQQEIK [P13S], the figure is 3.46.
WTMQAYERNFWDISPQLDTQQEIK [P13I]: the protein stability index came to 2.6.
To WTMQAYERSFWDPSPQLDTQQEIK [N9S] belongs 2.46.
To WTMQAYERRFWDPSPQLDTQQEIK [N9R] belongs 1.63; to WTMQAYERFFWDPSPQLDTQQEIK [N9F], 2.12.
To WTMQAYERYFWDPSPQLDTQQEIK [N9Y] belongs 2.08.
In the case of WTMQAYERMFWDPSPQLDTQQEIK [N9M], the protein stability index is 1.45.
With WTMQAYERCFWDPSPQLDTQQEIK [N9C], the protein stability index amounted to 1.94.
Regarding WTMQAYERDFWDPSPQLDTQQEIK [N9D], the protein stability index turned out to be 3.69.
As for WTMQAYERIFWDPSPQLDTQQEIK [N9I], the figure is 2.04; as for WTMQAYERNFWDPSPQDDTQQEIK [L17D], 3.56; as for WTMQAYERNFWDPSPQNDTQQEIK [L17N], 2.8.
For WTMQAYERNFWDPSPQMDTQQEIK [L17M], the protein stability index was found to be 3.2.
Consider WTMQAYERNFWDPSPQSDTQQEIK [L17S], for which the protein stability index is 2.68.
As for WTMQAYERNFWDPSPQFDTQQEIK [L17F], the protein stability index stood at 2.94.
As for WTMQAYERNFWDPSPQADTQQEIK [L17A], the figure is 2.6; as for WTMQAYERNFWDPSPQYDTQQEIK [L17Y], 2.49; as for WTMQAYEHNFWDPSPQLDTQQEIK [R8H], 3.01.
To WTMQAYETNFWDPSPQLDTQQEIK [R8T] belongs 2.95; to WTMQAYEDNFWDPSPQLDTQQEIK [R8D], 3.9.
Consider WTMQAYEQNFWDPSPQLDTQQEIK [R8Q], for which the protein stability index stood at 3.26.
As for WTMQAYEYNFWDPSPQLDTQQEIK [R8Y], the figure is 2.52.
To WTMQAYEWNFWDPSPQLDTQQEIK [R8W] belongs 2.4.
To WTMQAYEVNFWDPSPQLDTQQEIK [R8V] belongs 2.57.
As for WTMQAPERNFWDPSPQLDTQQEIK [Y6P], the protein stability index is 2.95.
WTMQAFERNFWDPSPQLDTQQEIK [Y6F]: the protein stability index is 2.58.
As for WTMQAQERNFWDPSPQLDTQQEIK [Y6Q], the figure is 2.83.
Take WTMQASERNFWDPSPQLDTQQEIK [Y6S]: the protein stability index turned out to be 2.78.
In the case of WTMQADERNFWDPSPQLDTQQEIK [Y6D], the protein stability index came out at 3.34.
To WTMQAGERNFWDPSPQLDTQQEIK [Y6G] belongs 2.86; to WTMQARERNFWDPSPQLDTQQEIK [Y6R], 3.58.
To WTMQAYERNFMDPSPQLDTQQEIK [W11M] belongs 3.58; to WTMQAYERNFTDPSPQLDTQQEIK [W11T], 3.93; to WTMQAYERNFIDPSPQLDTQQEIK [W11I], 3.91.
To WTMQAYERNFEDPSPQLDTQQEIK [W11E] belongs 4.57; to WTMQAYERNFHDPSPQLDTQQEIK [W11H], 4.04.
With WTMQAYERNFLDPSPQLDTQQEIK [W11L], the protein stability index stood at 4.43.
To WTMQAYERNFVDPSPQLDTQQEIK [W11V] belongs 3.54; to WTMQAYERNFCDPSPQLDTQQEIK [W11C], 3.66; to WTMQAYERNFWDPSPQLLTQQEIK [D18L], 2.63.
As for WTMQAYERNFWDPSPQLNTQQEIK [D18N], the figure is 2.17; as for WTMQAYERNFWDPSPQLKTQQEIK [D18K], 2.16; as for WTMQAYERNFWDPSPQLATQQEIK [D18A], 2.32.
As for WTMQAYERNFWDPSPQLPTQQEIK [D18P], the figure is 2.24.
For the variant WTMQAYERNFWDPSPQLCTQQEIK [D18C], the protein stability index stood at 1.95.
For WTMQAYERNFWDPSPQLTTQQEIK [D18T], the protein stability index came out at 2.44.
As for WTMQAYERNFWDPSPQLVTQQEIK [D18V], the figure is 2.63; as for WTMQAYERNFWDPSPQLRTQQEIK [D18R], 2.02.
To HTMQAYERNFWDPSPQLDTQQEIK [W1H] belongs 3.13; to TTMQAYERNFWDPSPQLDTQQEIK [W1T], 4.25; to ETMQAYERNFWDPSPQLDTQQEIK [W1E], 4.41.
As for YTMQAYERNFWDPSPQLDTQQEIK [W1Y], the figure is 3.58; as for ITMQAYERNFWDPSPQLDTQQEIK [W1I], 3.35.
Take VTMQAYERNFWDPSPQLDTQQEIK [W1V]: the protein stability index was found to be 3.47.
Turning to KTMQAYERNFWDPSPQLDTQQEIK [W1K], the protein stability index is 4.15.
Regarding RTMQAYERNFWDPSPQLDTQQEIK [W1R], the protein stability index worked out at 4.08.
As for FTMQAYERNFWDPSPQLDTQQEIK [W1F], the figure is 2.44; as for WTMQAYERNFWDPSHQLDTQQEIK [P15H], 2.56; as for WTMQAYERNFWDPSAQLDTQQEIK [P15A], 2.82.
Take WTMQAYERNFWDPSMQLDTQQEIK [P15M]: the protein stability index is 2.7.
Turning to WTMQAYERNFWDPSLQLDTQQEIK [P15L], the protein stability index is 2.3.
As for WTMQAYERNFWDPSVQLDTQQEIK [P15V], the figure is 2.19; as for WTMQAYERNFWDPSTQLDTQQEIK [P15T], 3.12; as for WTMQAYERNFWDPSFQLDTQQEIK [P15F], 1.96.
As to WTMQAYERNFWFPSPQLDTQQEIK [D12F], the protein stability index is 3.8.
To WTMQAYERNFWSPSPQLDTQQEIK [D12S] belongs 2.51; to WTMQAYERNFWKPSPQLDTQQEIK [D12K], 2.06; to WTMQAYERNFWGPSPQLDTQQEIK [D12G], 1.96.
For WTMQAYERNFWIPSPQLDTQQEIK [D12I], the protein stability index was 2.15.
WTMQAYERNFWLPSPQLDTQQEIK [D12L]: the protein stability index is 3.49.
Turning to WTMQAYERNFWCPSPQLDTQQEIK [D12C], the protein stability index came to 2.25.
Consider WTMQAYERNFWDPSPQLDIQQEIK [T19I], for which the protein stability index is 2.
To WTMQAYERNFWDPSPQLDLQQEIK [T19L] belongs 2.5.
As for WTMQAYERNFWDPSPQLDSQQEIK [T19S], the figure is 2.91; as for WTMQAYERNFWDPSPQLDFQQEIK [T19F], 1.55.
On to WTMQAYERNFWDPSPQLDRQQEIK [T19R], for which the protein stability index was determined as 2.05.
To WTMQAYERNFWDPSPQLDYQQEIK [T19Y] belongs 1.62.
